Results reported in patent US20230094463A1 (TRUEBINDING, published 2023).

Experiments:
[1] = target: T1, Human GAL3 protein (TrueBinding, QCB200349 / QCB200352; R&D Systems, 8259-GA) (human, UniProt P17931 2-250); experiment: blocking ELISA (GAL3 coated; antibody + biotinylated ITGaV)
T1 construct: also called human galectin-3

[2] = target: T1, Human GAL3 protein (TrueBinding, …); experiment: blocking ELISA (GAL3 coated; antibody + biotinylated ITGb3)
[3] = target: T1, Human GAL3 protein (TrueBinding, …); experiment: blocking ELISA (GAL3 coated; antibody + biotinylated ITGa3)
[4] = target: T2, Human Galectin-3 protein (Acro Biosystems, GA3-H5129) (human, UniProt P17931 2-250); experiment: SPR (Biacore T200), antibody captured, Galectin-3 as analyte
T2 construct: Bought protein; also called Gal3-ECD-His; Gal3-His; not shown: linker-spaced 6-histidine tag

[5] = target: T2, Human Galectin-3 protein (Acro …); experiment: ELISA, blocking of INSR binding to coated Gal3

T1 sequence (P17931 2-250 limits assumed): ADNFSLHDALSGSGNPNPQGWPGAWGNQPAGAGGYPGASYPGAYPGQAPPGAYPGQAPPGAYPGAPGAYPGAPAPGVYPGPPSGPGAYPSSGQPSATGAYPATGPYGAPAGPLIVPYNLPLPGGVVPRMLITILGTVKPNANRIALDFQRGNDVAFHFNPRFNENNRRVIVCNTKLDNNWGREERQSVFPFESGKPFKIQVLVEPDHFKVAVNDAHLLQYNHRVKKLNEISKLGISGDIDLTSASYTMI
T2 sequence (P17931 2-250): as the sequence (P17931 2-250 limits assumed) above

Binder | percent blockade of GAL3-ITGaV interaction [1] | percent blockade of GAL3-ITGb3 interaction [2] | percent blockade of GAL3-ITGa3 interaction [3] | Kd [4] | Gal3-INSR Blocking @ 3 µg/mL [5]
F847C.10B9 (antibody, V domains shown, also called 847.10B9) VH: QIQLVQSGPEVKKPGETVKISCKASGYIFTNYGMNWVKQAPGKGLKWMGWINTYTGEPTYTDDFKGRFAFSLETSASTAYLQINNLKNEDTATYFCAKFGNYVGAMDYWGQGTSVTVSS VL: DIRMTQSPSSLSASLGDTITITCHASQNINVWLSWYQQKPGNIPKLLIYKASNLHTGVPSRFSGSGSGTGFTLTISSLQPEDIATYYCQQGQSYPYTFGGGTKLELK | > 90% | > 90% | > 90% |  | 
F847C.12F12 (antibody, V domains shown, anti-Gal3 antibody; also called 847.12F12; 84712F12) VH: QIQLVQSGPELKKPGETVKISCKASGYTFTNYGMNWVKQAPGKGLKWMGWINTYTGEPTYVDDFKGRFAFSLETSASTAYLRINNLKNEDTATYFCAKFGNYVGAMDYWGQGTSVTVSS VL: DIQVIQSPSSLSASLGDTITITCHASQNINVWLSWYQQKPGNIPKLLIYKASNLHTGVPSRFSGSGSGTGFTLTISSLQPEDIATYYCQQGQSYPYTFGGGTKLELK | > 90% | > 90% | > 90% |  | 
F847C.26F5 (antibody, V domains shown, also called 847.26F5) VH: QIQLVQSGPEVKKPGETVKISCKASGYIFTNYGMNWVKQAPGKGLKWMGWINTYTGEPTYTDDFKGRFAFSLETSASTAYLQINNLKNEDTATYFCAKFGNYVGAMDYWGQGTSVTVSS VL: EIKMNQSPSSLSASLGDTITITCHASQNINVWLSWYQQKPGNIPKLLIYKASNLHTGVPSRFSGSGSGTGFTLTISSLQPEDIATYYCQQGQSYPYTFGGGTKLELK | > 90% | > 90% | > 90% |  | 
13H12.2F8 (antibody, V domains shown) VH: QIQLVQSGPELKKPGETVKISCKASGYTFTTYGMSWVKQAPGKGLKWMGWINTYSGVPTYADDFKGRFAFSLETSASTAYLQINNLKNEDTATYFCAVPYEYDGAYWGQGTLVTVSA VL: not shown |  |  |  | 6.07 nM | 97%
F846C.1H5 (antibody, V domains shown, anti-Gal3 antibody; also called 846.1H5) VH: EVQLLESGGGLVKPGGSLKLSCAASGFTFSSYAMSWVRQTPEKRLEWVASISSGGDTYYPDSVKGRFTISRDNARNILYLQMSSLRSEDTAMYYCASYGNSLFDYWGQGTTLTVSS VL: DVVMTQTPLSLPVSLGDQASISCRSSQSLVHNSGNTYLHWYLQRPGQSPNLLIYKVSNRFSGVPDRFSGSGSGTDFTLKISRVAAEDLGVYFCSQSTHVPPTFGGGTKLEIK |  |  | > 90% |  | 
F846C.1B2 (antibody, V domains shown, also called 846.1B2) VH: QIQLVQSGPELKKPGETVKISCKASGYTFTNYGMNWVKQAPGKGLKWMGWINTYTGEPSYADDFKGRFAFSLETSASTAYLQINNLKNEDMATYFCARWGGYAGDYYAMDFWGQGTSVTVSS VL: NIWLTQSPSSLAVSAGEMVTMTCKSSQSVLYSSNQKNYLAWYQQKPGQSPKLLIYWASTRESGVPDRFTGSGSGTDFSLTISSVQAEDLAVYYCHQYLSSLTFGAGTKLELK | > 90% | > 90% | > 90% |  | 
F846C.1H12 (antibody, V domains shown, also called 846.1H12) VH: QIQLVQSGPELKKPGETVKISCKASGYTFTNFGMNWVKQAPGKGLKWMGWINTYTGEPSYADDFKGRFAFSLETSASTAYLQINNLKNEDIATYFCARWGGYAGDYYAMDYWGQGTSVTVSS VL: NIMMTQSPSSLAVSAGQKVTMSCKSSQSVLYSSSQKNYLAWYQQKPGQSPKLLIYWASTRESGVPDRFSGSGSGTDFTLTISSVQPEDLAVYYCHQYLSSLTFGAGTKLELKR |  | > 90% | > 90% |  | 
F846C.2H3 (antibody, V domains shown, also called 846.2H3) VH: QIQLVQSGPELKKPGETVKISCKASGYTFTNYGMNWVKQAPGKGLKWMGWINTYTGEPSYADDFKGRFAFSLETSASTAYLQINNLKNEDMATYFCARWGGYDGDYYAMDYWGQGTSVTVSS VL: NIMMTQSPSSLAVSAGEKVTMSCKSSQSVLYSSNQKNYLAWYQQKPGQSPKLLIYWASTRESGVPDRFTGSGSGTDFTLTISSVQPEDLAVYYCHQYLSSLTFGAGTKLELK | > 90% | > 90% | > 90% |  | 
F846TC.16B5 (antibody, V domains shown, also called 846T.16B5) VH: QIQLVQSGPELKKPGETVKISCKASGYTFTNYGMNWVKQAPGKGLKWMGWINTYTGEPAYADDFKGRFAFSLETSASTAYLQINNLKNEDMATYFCARWGGYDGDYYAMDYWGQGTSVTVSS VL: NIMMTQSPSSLAVSAGEKVTMSCKSSQSVLYSSNQKNYLAWYQQKPGQSPKLLIYWASTRESGVPDRFTGSGSGTDFTLTISSVQAEDLAVYYCHQYLSSLTFGAGTKLELKR | > 90% | > 90% | > 90% |  | 
F847C.4B10 (antibody, V domains shown, anti-Gal3 antibody; also called 847.4B10) VH: EVQLVETGGGLVKPGGSLKLSCAASGFTFSSYAMSWVRQTPEKRLEWVASISSGGSTYYPDSVKGRFTISRDNARNILYLQMSSLRSEDTAMYYCTRFTTVVEMDYWGQGTSVTVSS VL: QAVVTQESALTTSPGETVTLTCRSSTGAVTTSNYANWVQEKPDHLFTGLIGGTNNRAPGVPARFSGSLIGDKAALTITGAQTEDEAIYFCALWYSNHLVFGGGTKLTVLR |  |  | > 90% |  | 
F846TC.14A2 (antibody, V domains shown, anti-Gal3 antibody; also called 846T.14A2) VH: QIQLVQSGPELKKPGETVKISCKASGYTFTNYGMNWVKQAPGKGLKWMGWINTYTGEPTYAGDLKGRFAFSLETSASTAYLQINNLKNEDTATYFCVRYTMDYWGQGTSVTVSS VL: QAVVTQESALTTSPGETVTLTCRSSTGAVTTSNYANWVQEKPDHLFTGLIGGINNRVPGVPARFSGSLIGDKAALTITGAQTEDEAIYFCALWYSNHWVFGGGTKLTVL | > 90% | > 90% | > 90% |  | 
7D8.2D8 (antibody, V domains shown) VH: EVQLVESGGGLVKPGGSLKLSCAASGFTFSSYAMSWVRQTPEKRLEWVATISDGGIYTYYPDNVKGRFTISRDNAKNNLFLQMSHLKSEDTAMYYCVRDGGYWGQGTTLTVSS VL: DVLMTQTPLSLPVSLGDQASISCRSSQSIVHSNGNTYLEWYLQKPGQSPKLLIYKVSNRFSGVPDRFSGSGSGTDFTLKISRVEAEDLGVYYCFQGSHVPLTFGAGTKLELK |  |  |  | 2.49 nM | 75%
15F10.2D6 (antibody, V domains shown) VH: EVQLVESGGGLVKPGGSLKLSCAASGFAFSSYAMSWVRQTPEKRLEWVATISDGGVYTYYTDHVKGRFTISRDNAEDNLYLQMSHLKSEDTAMYYCVRDGGYWGQGTTLTVSS VL: DVLMTQTPLSLPVSLGDQASISCRSSQSIVHNNGNTYLEWYLQKPGQSPKLLIYKVSNRFSGVPDRFSGSGSGTDFTLKISRVEAEDLGVYYCFQGSHVPLTFGGGTKLELK |  |  |  | 2.06 nM | 82%
